Data: patent US20200369772A1 (ABBA THERAPEUTICS, published 2020)

T1: mouse PD-L2 (full-length, on cells) (mouse, UniProt Q9WUL5 20-247)
T1 construct: whole, on cells; HEK293 cells stably expressing full-length mouse PD-L2
T1 sequence (looked up): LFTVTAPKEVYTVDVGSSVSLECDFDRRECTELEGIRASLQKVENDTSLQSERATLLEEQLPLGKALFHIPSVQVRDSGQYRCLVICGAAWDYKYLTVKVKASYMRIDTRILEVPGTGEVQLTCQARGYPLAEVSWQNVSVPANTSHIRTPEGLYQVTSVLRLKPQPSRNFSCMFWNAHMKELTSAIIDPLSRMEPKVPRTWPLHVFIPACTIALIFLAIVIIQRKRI

T2: human PD-L2 (full-length, on cells) (human, UniProt Q9BQ51 20-273)
T2 chain: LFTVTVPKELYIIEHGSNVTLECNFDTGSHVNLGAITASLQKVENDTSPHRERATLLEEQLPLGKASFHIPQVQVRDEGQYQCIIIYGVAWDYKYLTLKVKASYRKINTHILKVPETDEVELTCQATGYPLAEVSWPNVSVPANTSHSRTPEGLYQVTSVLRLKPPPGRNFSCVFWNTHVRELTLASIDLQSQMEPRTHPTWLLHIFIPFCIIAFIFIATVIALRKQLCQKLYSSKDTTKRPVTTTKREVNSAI

T3: recombinant human PD-L2-Fc-biotin (human, UniProt Q9BQ51 20-220, biotin)
T3 chain: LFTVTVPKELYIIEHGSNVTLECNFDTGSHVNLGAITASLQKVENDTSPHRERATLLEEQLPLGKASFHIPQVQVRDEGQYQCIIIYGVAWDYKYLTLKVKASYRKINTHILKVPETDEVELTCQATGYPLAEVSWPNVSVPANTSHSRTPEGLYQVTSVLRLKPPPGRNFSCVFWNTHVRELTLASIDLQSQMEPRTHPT

T4: human PD-L2 (full-length, on cells) (human, UniProt Q9BQ51 20-273)
T4 construct: whole, on cells; CHO-K1 cells stably expressing full-length human PD-L2; also endogenous on NCI-H226 and transfected in Jurkat cells; also called hPD-L2; CHO-K1/hPD-L2
T4 sequence (looked up): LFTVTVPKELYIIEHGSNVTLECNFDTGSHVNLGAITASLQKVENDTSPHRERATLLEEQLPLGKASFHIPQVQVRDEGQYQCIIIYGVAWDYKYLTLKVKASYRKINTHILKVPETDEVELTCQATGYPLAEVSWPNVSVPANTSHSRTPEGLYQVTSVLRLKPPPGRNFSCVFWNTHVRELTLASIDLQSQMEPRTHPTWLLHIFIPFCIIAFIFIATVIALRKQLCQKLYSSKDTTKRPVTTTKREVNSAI


How the values were obtained:
[1] = molecular target: T1, mouse PD-L2 (full-length, on cells); assay: FACS on HEK293 cells stably expressing full-length mouse PD-L2
Procedure: (§1) The ability of anti-PD-L2 antibodies binding to mouse PD-L2, human PD-L1 or cyno PD-L2 was determined by FACS. HEK293 cells stably expressing full-length monkey PD-L2, mouse PD-L2 or human PD-L1 were established, subcloned and verified. For binding assay, 1.5×10⁵ cells in 100 μl of FACSwash buffer were incubated with individual anti-PD-L2 antibodies (0.5 μg/ml) for 30 min. After three times of washing, the cells were re-suspended in FACSwash buffer containing FITC-labelled goat-anti-rat IgG (Thermo Fisher, 1:1000) or APC-labelled goat-anti-ratIgG (Biolegend, Clone Poly4054) at a 1:2000 dilution for 20 min at 4° C., washed three times and subsequently subjected to FACS analysis. FACS data was analysed using FlowJo Software and depicted as histograms including secondary antibody only controls.

[2] = molecular target: T2, human PD-L2 (full-length, on cells); assay: blocking of hPD-1 binding to CHO-K1/hPD-L2 cells
Method in brief: (§2)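 Serially diluted antibody (0.25 ng/ml-4 μg/ml) was applied for 30 min at 4° C to 1.5×10⁵ CHO-K1 cells stably expressing human PD-L2, after which 0.5 μg/ml recombinant human PD-1-mouse Fc was added for 30 min at 4° C and detected with fluorochrome-conjugated anti-mouse IgG2a (1:200, 20 min, 4° C). Bound PD-1 was read by flow cytometry against reference wells setting 0% and 100% binding. The IC50 was calculated through non-linear curve fitting in GraphPad Prism.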

[3] = molecular target: T2, human PD-L2 (full-length, on cells); assay: FACS, NCI-H226 cells
Method in brief: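 NCI-H226 human lung squamous carcinoma cells (1.5×10⁵) were stained with APC-labelled goat anti-rat IgG (1:2000) for 20 min at 4° C. Binding to endogenous PD-L2 on these cells was then read by flow cytometry on a BD FACSCalibur. GraphPad Prism non-linear fitting of percentage of maximal binding versus concentration gave the binding EC50.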

[4] = molecular target: T2, human PD-L2 (full-length, on cells); assay: FACS, CHO-K1 expressing human PD-L2
Method in brief: (§3)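 Flow cytometry on a BD FACSCalibur was used to measure binding to CHO-K1 cells stably expressing full-length human PD-L2. Staining took 20 min at 4° C with APC-labelled anti-rat IgG or anti-human IgG Fc, chosen to match the antibody format. GraphPad Prism was used for non-linear curve fitting of percentage of maximal binding against concentration to obtain the binding EC50.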

[5] = molecular target: T3, recombinant human PD-L2-Fc-biotin; assay: FACS blocking of hPD-L2 binding to HEK293T-hPD-1; low antigen concentration
Method in brief: (§4)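 The IC50 was calculated by non-linear curve fitting in GraphPad Prism from a flow cytometry assay of ligand binding to HEK293 cells stably expressing human PD-1. For this, antibody in serial dilution (0.03 ng/ml-0.5 μg/ml) was first held with recombinant human PD-L2-Fc-biotin (5 ng/ml, 100 pM) in 100 μl for 60 min at 4° C, then added to 1.5×10⁵ cells for 30 min at 4° C. Binding was read with fluorochrome-conjugated streptavidin (20 min, 4° C), with control wells defining 0% and 100% binding.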

[6] = molecular target: T5, human PD-L1 (full-length, on cells) (human, UniProt Q9NZQ7 19-290); assay: FACS on HEK293 cells stably expressing full-length human PD-L1
T5 construct: whole, on cells; HEK293 cells stably expressing full-length human PD-L1
Procedure: as §1

[7] = molecular target: T2, human PD-L2 (full-length, on cells); assay: FACS blocking of PD-1 binding to CHO-K1/hPD-L2; high antigen concentration
Method in brief: as §2

[8] = molecular target: T4, human PD-L2 (full-length, on cells); assay: hybridoma supernatant screen on cells expressing human PD-L2
[9] = molecular target: T3, recombinant human PD-L2-Fc-biotin; assay: blocking of hPD-L2 binding to HEK293-hPD-1 cells
Method in brief: as §4

[10] = molecular target: T2, human PD-L2 (full-length, on cells); assay: FACS binding to CHO-K1 cells expressing human PD-L2
Method in brief: as §3

[11] = molecular target: T4, human PD-L2 (full-length, on cells); assay: FACS binding on cells expressing human PD-L2 (per the examples)
[12] = molecular target: T2, human PD-L2 (full-length, on cells); assay: FACS binding to CHO-K1 cells expressing human PD-L2
Method in brief: as §3

[13] = molecular target: T1, mouse PD-L2 (full-length, on cells); assay: FACS on HEK293T cells expressing mouse PD-L2
Procedure: (§5) HEK293T cells expressing mouse PD-L2 were incubated with chimeric anti-PD-L2 antibodies. Cells were washed and binding was detected with an FITC-labelled anti-rat IgG Ab (Thermo Fisher Scientific). Flow cytometric analyses were performed using a FACSCalibur flow cytometer (Becton Dickinson). PE-labelled anti-mouse PD-L2 clone TY25 served as positive control. All peaks overlap except for the positive control in FIG. 6F.
as §1

[14] = molecular target: T5, human PD-L1 (full-length, on cells); assay: FACS on HEK293T cells expressing human PD-L1
Procedure: as §5, with “human PD-L1” for “mouse PD-L2”, “anti-human PD-L1” for “anti-mouse PD-L2”, “MIH1” for “TY25”, “7F.” for “6F.”
as §1

T5 sequence (Q9NZQ7 19-290): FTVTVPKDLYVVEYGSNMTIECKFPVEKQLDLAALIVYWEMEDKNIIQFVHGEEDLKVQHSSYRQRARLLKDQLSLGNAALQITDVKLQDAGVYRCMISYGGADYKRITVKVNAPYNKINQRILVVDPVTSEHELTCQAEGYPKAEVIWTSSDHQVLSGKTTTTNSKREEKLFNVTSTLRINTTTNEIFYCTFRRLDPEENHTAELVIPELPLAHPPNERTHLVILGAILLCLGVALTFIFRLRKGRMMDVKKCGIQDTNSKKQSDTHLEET

Binder | binding result [1] | IC50 [2] | EC50 [3] | EC50 [4] | IC50 [5] | binding result [6] | IC50 [7] | binding result [8] | IC50 [9] | EC50 [10] | binding result [11] | EC50 [12] | binding result [13] | binding result [14]
11C11-H5 (antibody, V domains shown, Both formats under this entry) VH: QVQLVESGGGVVQPGRSLRLSCAASGFAFSAYGMHWVRQAPGKGLEWVAISWYDGSNNYHADSVKGRFTISRDSSKNTLYLQMNSLRAEDTAVYYCAKSIGVARHYYYGMDVWGQGTTVTVSS VL: SYELTQPPSVSVSPGQTASITCSGEELGDKYACWYQQKPGQSPVLVIYQDSKRPSGIPERFSGSNSGNAATLTISGTQAMDEADYYCQAWDSITVVFGGGTKLTVLG | no binding (tested: 0.5 µg/ml) | 410 pM | 131 pM | 346 pM | 14.9 pM | no binding (tested: 0.5 µg/ml) | 527 pM | binds | 12 pM | 810 pM | – | – | – | –
19C3-B3 (antibody, V domains shown, Both formats under this entry; also called 19C3-C3) VH: QVQLVESGGGVVQPGRSLRLSCAASGFAFSAYGMHWVRQAPGKGLEWVAISWYDGSNNYHADSVKGRFTISRDSSKNTLYLQMNSLRAEDTAVYYCAKSIGVARHYYYGMDVWGQGTTVTVSS VL: SYELTQPPSVSVSPGQTASITCSGEELGDKYACWYQQKPGQSPLLVIYQDSKRPSGIPERFSGSNSGNAATLTISGTQAMDEADYYCQAWDSITVIFGGGTKLTVLG | no binding (tested: 0.5 µg/ml) | 430 pM | 102 pM | 311 pM | 15.1 pM | no binding (tested: 0.5 µg/ml) | 454 pM | – | 13 pM | 440 pM | binds | – | – | –
10D1-G1 N31Q.N92Q.LC (antibody, V domains shown, Optimized variant of 10D1-G1; also called 10D1-G1 N31Q.N920.LC) VH: QVQLQESGPGLVKPSGTLSLTCAVSGGSISSSYWWSWVRQPPGKGLEWIGEIFHIGSTNYNPSLRSRVTISVVKSKNQFSLNLNSVTAADTAVYFCARVSGGYGYFSGMDVWGQGTTVTVSS VL: DIQMTQSPSSLSASVGDRVTITCRASQGIRQDLGWYQQKPGKAPKRLIYGASSLQSGVPSRFSGSGSGTEFTLTISSLQPEDFATYYCLQHQSYPRTFGQGTKVEIK | – | – | – | – | – | – | – | – | – | – | binds | 320 pM | no binding | no binding
2C4-E4 (antibody, V domains shown, Both formats under this entry) VH: QVQLVQSGAEVKKPGASVKVSCKASGYTFTGYVMHWVRQAPGQRLEWMGWINADNGITKYSQKFQGRVTITRDTSASTAYMELTNLRSEDTAVYYCARATRGFGEFYFDYWGQGNLVTVSS VL: DIQMTQSPSTLSASVGDRVTITCRASQTISSWLAWYQQKPGKAPNLLIYKASSLESGVPSRFSGSGSGTEFTLTISSLQPDDFATYYCQQYYSYWTFGQGTKVEIK | no binding (tested: 0.5 µg/ml) | 530 pM | 134 pM | 485 pM | 21.5 pM | no binding (tested: 0.5 µg/ml) | 612 pM | – | 20 pM | 450 pM | binds | – | – | –
8B5-B1 (antibody, V domains shown, Both formats under this entry) VH: EVQLLESGGGLVQPGGSLKLSCAASGFTFSSYAMFWVRQAPGEGLAWVSAITGSGDHTYYADSVKDHFTISRDNSKNTLYLQMNSLKAEDTAVYYCAKDASGNSYGFPYWYFDLWGRGTLVTVSS VL: QSALTQPASVSGSPGQSITISCTGTSSDVAGYNFVSWYQHHPGKTPKLMIYDVTNRPSGVSTRFSGSKSGNTASLTISGLQAEDEADYYCSSFTSATTLVFGGGTKLTVLG | no binding (tested: 0.5 µg/ml) | 940 pM | 1520 pM | 2180 pM | 56.3 pM | no binding (tested: 0.5 µg/ml) | 2020 pM | binds | 17 pM | 1090 pM | – | – | – | –
1A1-C2 (antibody, V domains shown) VH: QVQLQESGPGLVKPSGTLSLTCAVSGGSIGSSYWWTWIRQSPGKGLEWIGEIFHSGPTNYTPSLKSRVTISVDKSKNQFSLQLRSVTAADTAVYYCARTTGTTGFYYGMDVWGQGTTVTVSS VL: EVVLTQSPATLYVTPGERVTLSCRASQSVSSNLAWYQQKPGQAPRLLIYGASTRATGIPARFSGSGSGTEFTLTISSLQSEDFAVYYCQQFNNWPRTFGLGTKVEIT | no binding (tested: 0.5 µg/ml) | 490 pM | 254 pM | 600 pM | 40.8 pM | no binding (tested: 0.5 µg/ml) | 706 pM | binds | 30 pM | 620 pM | – | – | – | –
